Measurements published in US20230054458A1 (JIANGSU HENGRUI MEDICINE, published 2023).

B1: humanized antibody h1901-11 (antibody, human IgG1, kappa, V domains shown)
VH: EVQLVESGGGLVQPGGSLRLSCAASGFTFSDYGIHWVRQAPGKGLEWIAYISRGSSTIYYADTVKGRFTISRDNAKNSLYLQMTSLRAEDTAVYYCARGGYDTRNAMDYWGQGTTVTVSS
VL: DIVMTQSPDSLAVSLGERATISCKSSQSLLNSGNQKNYLAWYQQKPGQPPKLLIYGASTRASGVPDRFSGSGSGTDFTLTISSLQAEDVAIYHCQNDLYYPLTFGQGTKLEIKR
B2: IMAB-362 (positive control antibody, from WO2016166122) (antibody, human IgG1, kappa, V domains shown)
VH: QVQLQQPGAELVRPGASVKLSCKASGYTFTSYWINWVKQRPGQGLEWIGNIYPSDSYTNYNQKFKDKATLTVDKSSSTAYMQLSSPTSEDSAVYYCTRSWRGNSFDYWGQGTTLTVSS
VL: DIVMTQSPSSLTVTAGEKVTMSCKSSQSLLNSGNQKNYLTWYQQKPGQPPKLLIYWASTRESGVPDRFTGSGSGTDFTLTISSVQAEDLAVYYCQNDYSYPFTFGSGTKLEIKR

Target: human claudin18.2 (Claudin 18.2, Genbank NP_001002026) (human)
Test: cell-based or functional assay

Row | Binder | ADCC effect IC50, FcrR3A-V158-NFAT-RE-Jurkat reporter luminescence, NUGC4 cells with high claudin18.2 expression | ADCC effect IC50, FcrR3A-V158-NFAT-RE-Jurkat reporter luminescence, NUGC4 cells with low claudin18.2 expression | ADCC effect IC50, FcrR3A-V158-NFAT-RE-Jurkat reporter luminescence, NUGC4 cells with moderate claudin18.2 expression
1 | B1 | 0.0262 µg/mL | 0.0224 µg/mL | 0.0154 µg/mL
2 | B2 | 0.133 µg/mL | 0.183 µg/mL | 0.21 µg/mL
